Data on 2 proteins can be found in PMC5617326 (ACS Catalysis, 2017).

Data set [1] concerns the molecule itself. The data set is described as follows: crystal structure; bCinS co-crystallised with 2 mM FNPP (Morpheus II A4, pH 6.5), also soaked with 2 mM FGPP; space group P1, two molecules in the asymmetric unit; interface analysed with PISA.
Data set [2] deals with the molecule itself. As to the kind of experiment: crystal structure; bLinS apo (25% w/v PEG3350) and co-crystallised with 2 mM FGPP (Morpheus D7, pH 7.5); space group I4, two molecules in the asymmetric unit.

Usually stoichiometry N stands for the number of molecules, sites or subunits per partner or assembly.

B1: 1,8-cineole synthase from Streptomyces clavuligerus (enzyme, Streptomyces clavuligerus ATCC 27064, UniProt B5GMG2 1-330, looked up)
chain: MPAGHEEFDIPFPSRVNPFHARAEDRHVAWMRAMGLITGDAAEATYRRWSPAKVGARWFYLAQGEDLDLGCDIFGWFFAYDDHFDGPTGTDPRQTAAFVNRTVAMLDPRADPTGEHPLNIAFHDLWQRESAPMSPLWQRRAVDHWTQYLTAHITEATNRTRHTSPTIADYLELRHRTGFMPPLLDLIERVWRAEIPAPVYTTPEVQTLLHTTNQNINIVNDVLSLEKEEAHGDPHNLVLVIQHERQSTRQQALATARRMIDEWTDTFIRTEPRLPALCGRLGIPLADRTSLYTAVEGMRAAIRGNYDWCAETNRYAVHRPTGTGRATTPW
In the case of B1, the “stoichiometry N” value in data set [1] was 2.

B2: linalool synthase from Streptomyces clavuligerus (enzyme, Streptomyces clavuligerus ATCC 27064, UniProt D5SL78 1-329, looked up)
chain: MQEFEFAVPAPSRVSPDLARARARHLDWVHAMDLVRGEEARRRYEFSCVADIGAYGYPHATGADLDLCVDVLGWTFLFDDQFDAGDGRERDALAVCAELTDLLWKGTAATAASPPIVVAFSDCWERMRAGMSDAWRRRTVHEWVDYLAGWPTKLADRAHGAVLDPAAHLRARHRTICCRPLFALAERVGGYEVPRRAWHSSRLDGMRFTTSDAVIGMNELHSFEKDRAQGHANLVLSLVHHGGLTGPEAVTRVCDLVQGSIESFLRLRSGLPELGRALGVEGAVLDRYADALSAFCRGYHDWGRGASRYTTRDHPGDLGLENLVARSSG
With B2, in data set [2], the binding result is listed as “binds”.
